Measurements from patent publication US20250161481A1 (published 2025).

Key:
[1] = target: human Cluster of Differentiation 3 protein (CD3) (human, UniProt P07766 23-207; P09693 23-182; P04234 22-171; P20963 22-164)
[2] = target: human Cluster of Differentiation 28 protein (CD28) (human, UniProt P10747 19-220)

Row | Binder | Kd [1] | Kd [2]
1 | MX1507 (antibody, engineered C-terminal cysteine of the knob chain, joined by maleimide-thiol reaction to DSPE-PEG2000-maleimide on the LNP surface) heavy 1: not shown heavy 2: QVQLVQSGAEVAKPGASVKVSCKASGYTFTRYTMHWVKQAPGQGLEWIGYINPSRGYTNYAQKFQGKATLTTDKSTSTAYMELSSLRSEDTAVYYCARYYDDHYSLDYWGQGTTLTVSSASTKGPSVFPLAPSSKSTSGGTAALGCLVKDYFPEPVTVSWNSGALTSGVHTFPAVLQSSGLYSLSSVVTVPSSSLGTQTYICNVNHKPSNTKVDKKVEPKSCDKTHTCPPCPAPEAAGGPSVFLFPPKPKDTLMISRTPEVTCVVVDVSHEDPEVKFNWYVDGVEVHNAKTKPREEQYNSTYRVVSVLTVLHQDWLNGKEYKCKVSNKALAAPIEKTISKAKGQPREPQVCTLPPSRDELTKNQVSLSCAVKGFYPSDIAVEWESNGQPENNYKTTPPVLDSDGSFFLVSKLTVDKSRWQQGNVFSCSVMHEALHNHYTQKSLSLSPG light: DIQLTQSPSSLSASVGDRVTITCRASQSISYLNWYQQKPGKSPKRWIYDTSKLASGVPSRFSGSGSGTDYTLTISSMQPEDAATYYCQQWSSNPLTFGGGTKVEIKRTVAAPSVFIFPPSDEQLKSGTASVVCLLNNFYPREAKVQWKVDNALQSGNSQESVTEQDSKDSTYSLSSTLTLSKADYEKHKVYACEVTHQGLSSPVTKSFNRGEC | 727 nM | –
2 | MX1506 (antibody, engineered C-terminal cysteine of the knob chain, joined by maleimide-thiol reaction to DSPE-PEG2000-maleimide on the LNP surface) heavy 1: not shown heavy 2: QVQLVQSGAEVKKPGASVKVSCKASGYTFTSYYIHWVRQAPGQGLEWIGSIYPGNVNTNYNEKFKDRATLTVDTSISTAYMELSRLRSDDTAVYFCTRSHYGLDWNFDVWGQGTTVTVSSASTKGPSVFPLAPSSKSTSGGTAALGCLVKDYFPEPVTVSWNSGALTSGVHTFPAVLQSSGLYSLSSVVTVPSSSLGTQTYICNVNHKPSNTKVDKKVEPKSCDKTHTCPPCPAPEAAGGPSVFLFPPKPKDTLMISRTPEVTCVVVDVSHEDPEVKFNWYVDGVEVHNAKTKPREEQYNSTYRVVSVLTVLHQDWLNGKEYKCKVSNKALAAPIEKTISKAKGQPREPQVCTLPPSRDELTKNQVSLSCAVKGFYPSDIAVEWESNGQPENNYKTTPPVLDSDGSFFLVSKLTVDKSRWQQGNVFSCSVMHEALHNHYTQKSLSLSPG light: not shown | – | 1.34 nM
3 | MX1500 (antibody) chain 1: not shown chain 2: DIQLTQSPSSLSASVGDRVTITCRASQSISYLNWYQQKPGKSPKRWIYDTSKLASGVPSRFSGSGSGTDYTLTISSMQPEDAATYYCQQWSSNPLTFGGGTKVEIKRTVAAPSVFIFPPSDEQLKSGTASVVCLLNNFYPREAKVQWKVDNALQSGNSQESVTEQDSKDSTYSLSSTLTLSKADYEKHKVYACEVTHQGLSSPVTKSFNRGECGGGGSGGGGSGGGGSGGGGSGGGGSGGGGSGGGGSGGGGSQVQLVQSGAEVAKPGASVKVSCKASGYTFTRYTMHWVKQAPGQGLEWIGYINPSRGYTNYAQKFQGKATLTTDKSTSTAYMELSSLRSEDTAVYYCARYYDDHYSLDYWGQGTTLTVSSASTKGPSVFPLAPSSKSTSGGTAALGCLVKDYFPEPVTVSWNSGALTSGVHTFPAVLQSSGLYSLSSVVTVPSSSLGTQTYICNVNHKPSNTKVDKKVEPKSCDKTHTCPPCPAPEAAGGPSVFLFPPKPKDTLMISRTPEVTCVVVDVSHEDPEVKFNWYVDGVEVHNAKTKPREEQYNSTYRVVSVLTVLHQDWLNGKEYKCKVSNKALAAPIEKTISKAKGQPREPQVCTLPPSRDELTKNQVSLSCAVKGFYPSDIAVEWESNGQPENNYKTTPPVLDSDGSFFLVSKLTVDKSRWQQGNVFSCSVMHEALHNHYTQKSLSLSPG | 1050 nM | –
4 | MX1243 (antibody) chain 1: not shown chain 2: DIQLTQSPSSLSASVGDRVTITCRASQSISYLNWYQQKPGKSPKRWIYDTSKLASGVPSRFSGSGSGTDYTLTISSMQPEDAATYYCQQWSSNPLTFGGGTKVEIKGGGGSGGSGSGGGGSASGSGQVQLVQSGAEVAKPGASVKVSCKASGYTFTRYTMHWVKQAPGQGLEWIGYINPSRGYTNYAQKFQGKATLTTDKSTSTAYMELSSLRSEDTAVYYCARYYDDHYSLDYWGQGTTLTVSSASGGSGDKTHTCPPCPAPEAAGGPSVFLFPPKPKDTLMISRTPEVTCVVVDVSHEDPEVKFNWYVDGVEVHNAKTKPREEQYNSTYRVVSVLTVLHQDWLNGKEYKCKVSNKALAAPIEKTISKAKGQPREPQVCTLPPSRDELTKNQVSLSCAVKGFYPSDIAVEWESNGQPENNYKTTPPVLDSDGSFFLVSKLTVDKSRWQQGNVFSCSVMHEALHNHYTQKSLSLSPG | 6.92 nM | 2.55 nM
